We go through one molecule from publication PMC10072977 (Biochemical and Biophysical Research Communications, 2023).

The assay addresses biotinylated SARS-CoV-2 WT RBD (Kactus Biosystems, CoV-VM4BDB) (SARS-CoV-2, UniProt P0DTC2, biotin). The assay can be described thus: ELISA. On the technique in general: ELISA stands for enzyme-linked immunosorbent assay.

B1: rabbit monoclonal antibody (RmAb) 9H1 (antibody, V domains shown)
VH: QSVEESGGRLVTPGTPLTLTCTVSGFSLSRYAMSWVRQAPGKGLEWIGIIVDSGHTAYASWAKGRFTISRTSTTVDLKMTSLTTEDTATYFCARETGGGAFYVFEFWGPGTVVTVSS
VL: QVLTQTPSSVSAAVGGTVTINCQASEDIYDNLVWYQQKPGQPPKLLIYDASTLAFGVSSRFRGSGSGTHFTLTMRDVQCDDAATYYCQGEFSCSSGDCTAFGGGTEVVVK
Regarding B1, the binding result is recorded as “binds”.
